From paper PMC5957528, “Boosting ATM activity alleviates aging and extends lifespan in a mouse model of progeria” (eLife, 2018)
Blank lines part the entries; values can stand above or below the molecule they belong to.

Columns and labels:
SIRT6 = SIRT6 (UniProt Q8N6T7); assay: anti-HA co-IP, ATM immunoblot; conditions: reference: Flag-ATM wild type; sites S1981
MDM2 = MDM2 (UniProt Q00987); assay: anti-Flag co-IP, MDM2 immunoblot; conditions: reference: Flag-SIRT6 wild type; sites S112
His-SIRT6 = target: T1, His-SIRT6 (human, UniProt Q8N6T7 1-355); assay: pull-down; GST pull-down: bacterially expressed 6 × His SIRT6 incubated separately with GST-ATM fragments in 150 mM NaCl, 20 mM Tris-HCl pH 7.5, 5 mM MgCl2, 0.2 mM EDTA, 10% glycerol, 0.2% NP-40; Glutathione Sepharose; washed with TEN buffer (300 mM NaCl); conditions: both partners purified
T1 construct: SIRT6, human; also called 6 × His tagged SIRT6; purified His-SIRT6; source: bacterially expressed, purified
T1 sequence (Q8N6T7 whole entry, the tested form may be a part): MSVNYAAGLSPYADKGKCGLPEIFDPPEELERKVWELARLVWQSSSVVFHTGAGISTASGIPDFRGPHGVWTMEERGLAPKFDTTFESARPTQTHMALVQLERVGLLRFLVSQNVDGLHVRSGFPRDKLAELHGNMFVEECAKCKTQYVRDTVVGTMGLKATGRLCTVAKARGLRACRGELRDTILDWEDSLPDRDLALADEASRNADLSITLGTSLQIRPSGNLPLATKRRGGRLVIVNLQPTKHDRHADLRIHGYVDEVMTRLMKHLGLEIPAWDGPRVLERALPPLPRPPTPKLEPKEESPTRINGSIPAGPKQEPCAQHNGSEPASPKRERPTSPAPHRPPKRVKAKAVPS

binding against the reference (SIRT6): lost
Molecule: ATM (from UniProt Q13315) Flag-ATM S1981A

binding against the reference (MDM2): stronger
Molecule: SIRT6 (from UniProt Q8N6T7) Flag-SIRT6 S112A

binding result (His-SIRT6): binds
B1: GST-ATM-4 (residues 770–1102) (domain or fragment, human, UniProt Q13315 770-1102, looked up)
chain: EFRIGSLRNMMQLCTRCLSNCTKKSPNKIASGFFLRLLTSKLMNDIADICKSLASFIKKPFDRGEVESMEDDTNGNLMEVEDQSSMNLFNDYPDSSVSDANEPGESQSTIGAINPLAEEYLSKQDLLFLDMLKFLCLCVTTAQTNTVSFRAADIRRKLLMLIDSSTLEPTKSLHLHMYLMLLKELPGEEYPLPMEDVLELLKPLSNVCSLYRRDQDVCKTILNHVLHVVKNLGQSNMDSENTRDAQGQFLTVIGAFWHLTKERKYIFSVRMALVNCLKTLLEADPYSKWAILNVMGKDFPVNEVFTQFLADNHHQVRMLAAESINRLFQDTKG
notes: source: recombinant GST fusion (pGEX4T-3 vector)
